For three molecules, EC50 results are on record in patent publication US20200010536A1.

The chains are these.
B1: SA-17 (antibody, V domains shown)
VH: QVQLVQSGGAVVQPGGSLRLSCVASGFTFDDYAMHWVRQAPGKGLEWVSLITLDGGRTYYADSVKGRFTISRDNSKNSLYLQMNRLRADDTGFYYCARDIKIGEAVMITVPGQHWGQGTLVTVSS
VL: QSVVTQDPGVSVALGQTVFITCQGDTLRSNYANWFQQKPGQAPVLVMYGKNNRPSGIPDRFSGSSSGNTASLTITGAQAEDEADYYCNSRDSSGNHVVFGGGTRVTVL
B2: SA-13 (antibody, V domains shown)
VH: QVQLVESGGGLVRPGGSLRLSCAASGFTFSEYYMSWIRQAPGKGLEWLSYISSSGTTIGHADSLKGRFTISRDNARNSLFLQMNSLRAEDTAVYYCARDGVGGPRARYDAFDIWGQGTLVTVSS
VL: QSVLTQPPSVSGAPGQRVTISCTGTYSNIGAGYDVHWYQQLPGRAPKLLIYGNRNRPSGVPDRFSGSKSGTSASLAITGLQAEDEADYYCQSHDSSLSGSVFGGGTKVTVL
B3: SA-15 (antibody, V domains shown)
VH: QVQLVQSGGGVVQPGRSLRLSCAASGFSFSTYDMNWVRQAPGKGLEWLSIISYDETNKYYADSVKGRFTISRDNSKNTLFLQMNSLKPEDSAVYHCVKVGWTLVGDGVDMWGQGTLVTVSS
VL: QPVLTQSPSSLSASVGDRVTISCRASQGISHYLAWYQQQPGKVPKLLIYAASTLQSGVPSRFSGSGSGTDFTLTISSLQPEDVATYYCQKYNGAPFTFGPGTKVDIK

For this experiment, the target named is LukAB heterodimer (Staphylococcus aureus). The experiment is described as follows: ELISA, immobilized LukAB, anti-human IgG-peroxidase detection. In general terms: In an ELISA, binding on a coated surface is turned into a signal by an enzyme label.
On to B1, for which the EC50 is 0.3 µg/mL.
The molecule B2 came in with an EC50 of 0.8 µg/mL.
As for B3, the figure is 1.5 µg/mL.

As a reminder, the EC50 is the midpoint of the concentration-response curve. High values mean weaker potency, low ones greater potency.
